Measurements: the DeepSol protein solubility set

Assay: soluble on expression in E. coli; label from the status in PepcDB or PDB records

| Sequence | soluble on expression in E. coli |
| --- | --- |
| MSGATPVFTEINQIQGTGDKSPLISSGFISDDEYFVQGVVTARGESLLKGFYLQGLNDDFDPNSSEGIFVSTGSAPSLEIQPGALVCVKAKVQEYYGQTQLKPDTNNFLVQGHQAPVSVTELTINENETLAQALERHEGMQVKLTSHSDLRITRNFSFDYASKRNNMVLSHGEPLFKPTQLFAAESPEAIQLAEENAKRQITIESDNKAPNGEVPYFPDFATDSNQDGSADSYLRLGARIEGLEGVIAYSYGQYRLVTTNTISQENIITQAFDEDGLEHHHHHH | soluble |
| MTQYVFEMGMTCNGCANAARKVLGKLGEDKIKIDDINVETKKITVTTDLPASDVLEALKKTGKEIKQLQ | not soluble |
| MGSDKIHHHHHHMIVKAKFVKGFIRDVHPYGCRREVLNQIDYCKKAIGFRGPKKVLIVGASSGFGLATRISVAFGGPEAHTIGVSYETGATDRRIGTAGWYNNIFFKEFAKKKGLVAKNFIEDAFSNETKDKVIKYIKDEFGKIDLFVYSLAAPRRKDYKTGNVYTSRIKTILGDFEGPTIDVERDEITLKKVSSASIEEIEETRKVMGGEDWQEWCEELLYEDCFSDKATTIAYSYIGSPRTYKIYREGTIGIAKKDLEDKAKLINEKLNRVIGGRAFVSVNKALVTKASAYIPTFPLYAAILYKVMKEKNIHENCIMQIERMFSEKIYSNEKIQFDDKGRLRMDDLELRKDVQDEVDRIWSNITPENFKELSDYKGYKKEFMNLNGFDLDGVDYSKDLDIELLRKLEP | not soluble |
| MSKIRVHEYAKKHNISSKDLMTKLKEMNIEVSNHMTMLDDEVVNKLDNEYQAEKPSVADEFEVEEKVVRSKKNSNKKKKKGKGNEDKRQENFAGRQQTQTVETPDKITFSGSLTVGDLAKKLSKEPSEIIKKLFMLGIMATINQDLDKDTIELIANDYGIEVEEEVIVSETEFETFIDEQDDEENLKERPAVVTIMGHVDHGKTTLLDSIRNSKVTAGEAGGITQHIGAYQVELNDKKITFLDTPGHAAFTTMRARGAQVTDITIIVVAADDGVMPQTVEAINHAKAAGVPIIVAVNKMDKPAANPDRVMQELTEYELVPEAWGGDTIFVPISAIQGEGIDNLLEMILLISEVEEYKANPNRYATGTVIEAQLDKGKGTIATLLVQNGTLRVGDPIVVGTSFGRVRAMVSDIGRRVKVAGPSTPVEITGLNEVPQAGDRFMAFADEKKARQIGESRAQEALLAQRGEKSKLSLEDLFQQIQEGDVKEINLIVKADVQGSVEAMAASLRKIDVEGVKVKIIHTGVGAITESDIILASASNAIVIGFNVRPDVNAKRTAELENVDIRLHRIIYKVIEEIEAAMQGMLDPEFEEKVIGQAEVRQTFKVTKVGTIAGCYVTDGKITRDSGVRIIRDGVVIFEGQLDTLKRFKDDVKEVAQNYECGITIERYNDLKEGDIIEAYIMEEVKR | not soluble |
| MHHHHHHAMDTYKLFIVIGDRVVVVTTEAVDAATAEKVFKQYANDNGVDGEWTYDDAAKTFTVTE | soluble |
| MKYLLPTAAAGLLLLAAQPAMAMASGGNSDSKTLNSLDKIKQNGVVRIGVFGDKPPFGYVDEKGNNQGYDIALAKRIAKELFGDENKVQFVLVEAANRVEFLKSNKVDIILANFTQTPQRAEQVDFCSPYMKVALGVAVPKDSNITSVEDLKDKTLLLNKGTTADAYFTQNYPNIKTLKYDQNTETFAALMDKRGDALSHDNTLLFAWVKDHPDFKMGIKELGNKDVIAPAVKKGDKELKEFIDNLIIKLGQEQFFHKAYDETLKAHFGDDVKADDVVIEGGKILEHHHHHH | soluble |
| MSSRIEQIIDEIDEFIESCKFQPLSATKIIVNKEEIEELLRELRLKTPDEIKRYQKIISNKDAILEDAQSKADAIIADAQAKAQELVTQHEIMQKAYAQANDTINAANKQAQEILDSATQDANSIRLSAITYTDDMMANIGSVLNQTLEDAGGKYKGFIDALQSCLDVVNHNRQELAPQTAQAAAMTGSYHEEPADAPEEDSLLDDLGEE | not soluble |
| MSLTTVLGIETSCDETGVGIARLDPDGTVTLLADEVASSVDEHVRFGGVVPEIASRAHLEALGPAMRRALAAAGLKQPDIVAATIGPGLAGALLVGVAAAKAYSAAWGVPFYAVNHLGGHLAADVYEHGPLPECVALLVSGGHTHLLHVRSLGEPIIELGSTVDDAAGEAYDKVARLLGLGYPGGKALDDLARTGDRDAIVFPRGMSGPADDRYAFSFSGLKTAVARYVESHAADPGFRTADIAAGFQEAVADVLTMKAVRAATALGVSTLLIAGGVAANSRLRELATQRCGEAGRTLRIPSPRLCTDNGAMIAAFAAQLVAAGAPPSPLDVPSDPGLPVMQGQVEGHHHHHH | soluble |
| MVAENQPGHIDQIKQTNAGAVYRLIDQLGPVSRIDLSRLAQLAPASITKIVREMLEAHLVQELEIKEAGNRGRPAVGLVVETEAWHYLSLRISRGEIFLALRDLSSKLVVEESQELALKDDSPLLDRIISHIDQFFIRHQKKLERLTSIAITLPGIIDTENGIVHRMPFYEDVKEMPLGEALEQHTGVPVYIQHDISAWTMAEALFGASRGARDVIQVVIDHNVGAGVITDGHLLHAGSSSLVEIGHTQVDPYGKRCYCGNHGCLETIASVDSILELAQLRLNQSMSSMLHGQPLTVDSLCQAALRGDLLAKDIITGVGAHVGRILAIMVNLFNPQKILIGSPLSKAADILFPVISDSIRQQALPAYSQHISVESTQFSNQGTMAGAALVKDAMYNGSLLIRLLQG | soluble |
| MFGGDTLYELRCSLQLAETEREGGFSPHISPFTAVNDLGHLLGRAGFNTLTVDTDEIQVNYPGMFELMEDLKGMGESNCSWNRKALLHRDTMLAAAAVYREMYRNEDGSIPATFQIYHMIGWKYHDSQARPAERGSATVSFGELAKLNDVMSHEKK | soluble |
| RSIRLPETIDLGALYLSMKDTEKGIKELNLEKDKKIFNHCFTGNCVIDWLVSNQSVRNRQEGLMIASSLLNEGYLQPAGDMSKSAVDGTAENPFLDNPDAFYYFPDSGFFCEEN | soluble |
| MGATGVASQRKTIEESIERNKEKYIETSHDIHANPEIGNQEFYASRTLSLLLGSAGFQLQHNIAGHETGFIARKSSGKQGPAIAFLAEYDALPGLGHACGHNLIGTISVAAAIALSETLEEIGGEVVVFGTPAEEGGPNGSAKSSYVKAGLFKNIDAALMIHPSGKTATTSPSLAVDPLDFHFYGKTAHAAASPEEGINALDAVIQLYNSINALRQQLPSDVKIHGVITEGGKAPNIIPDYAAARFFIRAATRKRCAEVTEKVKNIAQGAALATDTKVKIHQFQNEIDELLVTKTYNDVVAEELELLGEDVNRKERFGIGSTDAGNVSQVVPTIHPYIKIGPDDLIAHTNEFREAARSELGDKALITSAKALANTAYRLITEEGLLEKVKEEFREAQRNQG | not soluble |
| MTELKLIHIFTDGSCLGNPGPGGYGIVMKYKGHTKEMSGGFSLTTNNRMELLAPIVALEALKEPCKIILTSDSQYVRQGIMTWIHGWKKNGWMTSNGTPVKNVDLWKRLDKAAQLHQIDWRWVKGHAGHAENERCHQLARAAAEANPTQIDTGYQAES | soluble |
| MIKSSSKIGLAFFVRPQFDVDLAKNFFNKVQDSLKEAGIATQVFELPVSTDAEALSLAESVNSHQDLHGLIVVQGTFCDASLILNLASNINLPIMIWATKEQPTGGRLSLNSFCGLNLGAHTLVNAGIKFKGVYGSPGSPAVIKKVTSFARAAGAVKWLKGKRIGLFGHRPSGYYPSNFNEILLRKQFGITVEYLSLSEVFSLAQKMEIKDIQPFINTLVGVEGLEMVSTSKSVQAYLALKELIAQKALDAVAVECWPEFMAGFGGAVCYALSRLNDEGIVAACEADVNGAVTMLLGSYLSSQANFIADLVGAEEEQNQLIFWHCGNGPLSLAAPGTNPVAGVHPNRKTPLAMYFPLKGGPVTVSRLSSDHNGNLRLFLGSGTGIETDLLYSGNSLPIQISGSVEETLDTILCEGIEHHYIVTYGDLTSEFREIAELLGLRMITF | not soluble |
| MSLNENLQELIPTKLAAAIANPLFPAVDSQLRSGRHIGQEYLDNFAFLADFQNELDMFYRRYNVELIRAPEGFFYLRPKATTLIARSVLSELEMLVGKVLCYLYLSPERLAQQGIFSVQEVYDELLNLADESKLLKAVNQRSSGSDLDKQKLAEKVRAAVNRLRRLGMIHTVGEQNSGKFTISESVFRFGAEVRSGDDPREAQLRLIRDGEAATPDSLSQEKSAVKNDEEIEDELDEGLGEEEEGHHHHHH | soluble |
| MNLTQMLPDLDDVPESLLDEAIFDSFLSWTRSKDLALYPAQEEAALGILAGDNVILATPTGSGKSMVAIAAHFIAMARGQRSFYTAPIKALVNEKFFALCDIFGPESVGMMTGDATVNGSAPIICATAEIVANIALRDGTDADIDQVVMDEFHYYSEPGRGWAWQVPLLELPRTQFLLMSATLGDTTFIQKDLSDRTGRTTNLVAGATRPVPLQFSYVYTPVHETIQDLLDTNNAPIYVVHFTQREAIERAQSLTSMTVIDSETKEKIATEIGNFKFTTTFGHTLSKLLRKGIGVHHAGMLPKYRRLVEKLSQTGLLKIICGTDTLGVGINVPIRTVLFTGLAKFDGSKQRILASREFHQIAGRAGRAGYDTVGNVVIEAPEHEIENWRLRQRAGSDLKKLKKLRKKSARDGEVTWGEKTYERLSEAEPENLQSQFRISNSMLLNVIARSGDAYVHLKHLLRTNHDTRDKQNKDILTALELFRGLVAAGIVEKLDSPDSTGRKYVITEDLRRDFALNQPLAPFALAALEILDKESTSYALDVISVFESILEDPRVVLIAQQKQARGEEIAALKAEGVEYTERMNIVEEISWPKPLEEILEPAFDTYCSGHPWAKEFTLSPKSIVRDMIEHGMTFSDFIATYGLSRSEGVVLHYLTDAWKTLSHSVPTEYVSDELEEIIEWLGELVRQVDSSLIDEWANMADPDAPISQDTVDQQRAFGVEDPNAITANSRAFAVMVRNLMFRMVQLFAAEEEEKLEALTDYLDEQPDFSEALDVYFDEYSDLDVGPDARGREYFLLKKDGRIWSVRQIIKDPNDDRAFSFAATVDLNASDAADEVRFAKFSIDS | not soluble |
| MGHHHHHHHHHHSSGHIEGRHMGKNVLLLGSGFVAQPVIDTLAANDDINVTVACRTLANAQALAKPSGSKAISLDVTDDSALDKVLADNDVVISLIPYTFHPNVVKSAIRTKTDVVTSSYISPALRELEPEIVKAGITVMNEIGLDPGIDHLYAVKTIDEVHRAGGKLKSFLSYCGGLPAPEDSDNPLGYKFSWSSRGVLLALRNSAKYWKDGKIETVSSEDLMATAKPYFIYPGYAFVCYPNRDSTLFKDLYHIPEAETVIRGTLRYQGFPEFVKALVDMGMLKDDANEIFSKPIAWNEALKQYLGAKSTSKEDLIASIDSKATWKDDEDRERILSGFAWLGLFSDAKITPRGNALDTLCARLEELMQYEDNERDMVVLQHKFGIEWADGTTETRTSTLVDYGKVGGYSSMAATVGYPVAIATKFVLDGTIKGPGLLAPYSPEINDPIMKELKDKYGIYLKEKTVA | soluble |
| MGTPVVWEGNIGNPPEHKSFPNGNNEPRQLLRLNVMFDNSIPDGSGGYKDRGGFWANVEWWHPDAERFAQLFSKGMRVVVTGRAIMDTWKDKETGDDVWALKVEANRVAILPHRVNQVTMTQSNNTGQRQNAQQNNRPERQQNSAQQPGQHTDDLSHYGNGFDDDIPVLEHHHHHH | soluble |
| MSKLAIIAGDGIGPEVTAEAVKVLDAVVPGVQKTSYDLGARRFHATGEVLPDSVVAELRNHDAILLGAIGDPSVPSGVLERGLLLRLRFELDHHINLRPARLYPGVASPLSGNPGIDFVVVREGTEGPYTGNGGAIRVGTPNEVATEVSVNTAFGVRRVVADAFERARRRRKHLTLVHKTNVLTFAGGLWLRTVDEVGECYPDVEVAYQHVDAATIHMITDPGRFDVIVTDNLFGDIITDLAAAVCGGIGLAASGNIDATRANPSMFEPVHGSAPDIAGQGIADPTAAIMSVALLLSHLGEHDAAARVDRAVEAHLATRGSERLATSDVGERIAAAL | soluble |
